Results from patent publication US20240368668A1, “SUBSTRATES AND BIOMARKERS OF ADAMTS7” (The Broad Institute, Inc., priority 2021, published 2024).

Biological target: T1, mouse ADAMTS7 (Mus musculus, UniProt Q68SA9, E373Q)
T1 construct: Full-length mouse Adamts7 1-1857 (Uniprot Q68SA9, WT or E373Q catalytic mutant); expressed in transfected cells; host or cells: Human Coronary Artery Smooth Muscle Cells (HCA-SMC, Lonza), adenovirus 50 MOI
T1 sequence (Q68SA9 221-1657 E373Q): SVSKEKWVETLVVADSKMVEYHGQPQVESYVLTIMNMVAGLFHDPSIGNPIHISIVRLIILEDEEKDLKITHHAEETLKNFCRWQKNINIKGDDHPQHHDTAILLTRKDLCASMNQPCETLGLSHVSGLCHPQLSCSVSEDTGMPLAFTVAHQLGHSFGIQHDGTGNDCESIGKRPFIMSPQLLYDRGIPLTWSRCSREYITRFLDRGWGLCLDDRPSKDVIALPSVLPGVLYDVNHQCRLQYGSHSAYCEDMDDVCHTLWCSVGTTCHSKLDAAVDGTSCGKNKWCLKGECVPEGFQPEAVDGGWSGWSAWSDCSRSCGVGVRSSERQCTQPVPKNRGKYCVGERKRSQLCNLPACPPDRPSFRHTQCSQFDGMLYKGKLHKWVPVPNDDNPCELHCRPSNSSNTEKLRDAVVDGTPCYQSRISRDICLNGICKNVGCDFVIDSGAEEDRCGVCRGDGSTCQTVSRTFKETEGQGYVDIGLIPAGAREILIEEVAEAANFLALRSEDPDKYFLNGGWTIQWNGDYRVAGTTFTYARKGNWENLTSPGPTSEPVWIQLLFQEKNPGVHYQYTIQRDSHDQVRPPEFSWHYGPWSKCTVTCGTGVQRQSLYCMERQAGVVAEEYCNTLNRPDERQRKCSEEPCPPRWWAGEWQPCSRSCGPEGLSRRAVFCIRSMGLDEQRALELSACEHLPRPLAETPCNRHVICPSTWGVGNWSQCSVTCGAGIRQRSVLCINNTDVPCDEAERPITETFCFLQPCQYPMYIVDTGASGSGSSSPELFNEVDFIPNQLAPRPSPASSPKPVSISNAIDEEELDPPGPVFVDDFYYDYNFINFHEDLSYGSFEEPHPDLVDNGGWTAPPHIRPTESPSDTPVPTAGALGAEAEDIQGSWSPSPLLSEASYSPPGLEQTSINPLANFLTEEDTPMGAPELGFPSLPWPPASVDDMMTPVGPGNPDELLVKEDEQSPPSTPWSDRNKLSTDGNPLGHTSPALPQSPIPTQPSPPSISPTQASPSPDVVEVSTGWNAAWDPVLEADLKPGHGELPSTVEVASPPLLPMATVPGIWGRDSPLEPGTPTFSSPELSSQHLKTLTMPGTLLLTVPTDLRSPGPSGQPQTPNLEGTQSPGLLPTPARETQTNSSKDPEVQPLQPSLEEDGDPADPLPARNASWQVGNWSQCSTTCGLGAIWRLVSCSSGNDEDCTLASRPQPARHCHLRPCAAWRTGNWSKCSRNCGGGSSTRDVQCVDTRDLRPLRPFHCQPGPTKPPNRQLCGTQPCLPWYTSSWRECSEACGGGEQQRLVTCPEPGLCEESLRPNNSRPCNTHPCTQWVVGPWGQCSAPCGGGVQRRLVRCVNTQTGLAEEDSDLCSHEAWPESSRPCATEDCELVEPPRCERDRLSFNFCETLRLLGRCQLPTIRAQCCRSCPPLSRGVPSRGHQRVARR
Test: TMT10 TAILS N-terminomics, SMC2 experiment (process replicates, trypsin/AspN digest)
Type: cell-based
In short: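 Full-length mouse ADAMTS7 (WT or E373Q mutant, C-terminal 3xFLAG) or luciferase was transduced via adenovirus, 50 MOI, into HCA-SMC (SMC1, SMC2) or HUVEC. SMC1: pooled media, technical triplicates 400 ug; SMC2: process triplicates 300 ug; HUVEC: process triplicates 200 ug, bFGF2 10 ng/ml.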

[1] = SMC2_TAILS HC, log fold change of N-terminal peptide, Ad-mADAMTS7 EQ over Luc

Row | logFC.mEQ.over.Luc [1] | logFC.mEQ.over.Luc (log fold change, ADAMTS7 EQ over luciferase) | Substance
1 | 0.06 |  | VIM_276 (YESVAAKNLQ; listed as Homo sapiens)
2 | −0.10 |  | VIM_322 (QVQSLTCEV; listed as Homo sapiens)
3 |  | 0.12 | VIM_433 (LVDTHSKR; listed as Homo sapiens)
4 | −0.09 |  | ZSCAN4_25 (FQQSQGPAVQR; listed as Homo sapiens)
